Laboratory results as given in patent US20220411475A1.

How the values were obtained:
[1] = biological target: PreS1 synthetic peptide p(18-25) (Hepatitis B virus (ayw)); experiment: solid-phase ELISA, antigen on plate
[2] = biological target: PreS1-WHc VLP-1.6 (15-40); experiment: solid-phase ELISA, antigen on plate
[3] = biological target: purified HBV virions (Hepatitis B virus); experiment: solid-phase ELISA, antigen on plate
[4] = biological target: PreS1-WHc VLP-1.3+ (1-25) (Woodchuck hepatitis virus; Hepatitis B virus (ayw)); experiment: solid-phase ELISA, antigen on plate
[5] = biological target: PreS1-WHc VLP-1.1+ (19-43) (Woodchuck hepatitis virus; Hepatitis B virus (ayw)); experiment: solid-phase ELISA, antigen on plate
[6] = biological target: PreS1-WHc VLP-1.4+ (15-34) (Woodchuck hepatitis virus; Hepatitis B virus (ayw)); experiment: solid-phase ELISA, antigen on plate
[7] = biological target: PreS1 synthetic peptide p(1-36) (Hepatitis B virus (ayw)); experiment: solid-phase ELISA, antigen on plate
[8] = biological target: myristoylated rPreS1/PreS2 protein (Hepatitis B virus (ayw)) (UniProt P03138); experiment: solid-phase ELISA, antigen on plate
[9] = biological target: PreS1-WHc VLP-1.5 (1-34) (Woodchuck hepatitis virus; Hepatitis B virus (ayw)); experiment: solid-phase ELISA, antigen on plate
[10] = biological target: combination of VLPs 1.6+1.9; experiment: solid-phase ELISA, antigen on plate
[11] = biological target: PreS1-WHc VLP-1.4 (15-31) (Woodchuck hepatitis virus; Hepatitis B virus (ayw)) (UniProt P0C6J2); experiment: solid-phase ELISA, antigen on plate
[12] = biological target: PreS1-WHc VLP-1.9 (83-106-NH2/1-25-loop); experiment: solid-phase ELISA, antigen on plate
[13] = biological target: recombinant (r) PreS1/PreS2 protein (Hepatitis B virus (ayw)) (UniProt P03138); experiment: solid-phase ELISA, antigen on plate
[14] = biological target: HDV particles coated with HBV envelope proteins (L/M/S HBsAg/ay) (Hepatitis B virus genotype D, subtype ayw) (UniProt P03138); experiment: cell-based or functional assay
[15] = biological target: PreS1 synthetic peptide p(21-42) (Hepatitis B virus (ayw)); experiment: solid-phase ELISA, antigen on plate
[16] = biological target: PreS1-WHc VLP-1.1 (21-43) (Woodchuck hepatitis virus; Hepatitis B virus (ayw)); experiment: solid-phase ELISA, antigen on plate

Substance | Min binding conc. [1] [ng/mL] | Min binding conc. [2] [ng/mL] | Min binding conc. [3] [ng/mL] | Min binding conc. [4] [ng/mL] | Min binding conc. [5] [ng/mL] | Min binding conc. [6] [ng/mL] | Min binding conc. [7] [ng/mL] | Min binding conc. [8] [ng/mL] | Min binding conc. [9] [ng/mL] | Min binding conc. [10] [ng/mL] | Min binding conc. [11] [ng/mL] | Min binding conc. [12] [ng/mL] | Min binding conc. [13] [ng/mL] | higher stringency neutralization assay, complete neutralization [14] [µg/mL] | neutralization of HDV-HBV infection of HepaRG cells (intracellular HDV RNA) [14] [µg/mL] | Min binding conc. [15] [ng/mL] | Min binding conc. [16] [ng/mL]
PreS1-specific Mab 18/7 (antibody) | 8 | 0.3 | 2 | 1.6 | 0.3 | 8 | 1.6 | 0.3 | 0.3 | 0.3 | 0.3 | 1.6 | 0.3 | > 5 | < 0.05 |  | 
PreS1-specific Mab KR-127 (antibody) |  | 1.6 | 75 |  | 1000 | 8 | 1.6 | 1.6 |  | 1.6 |  |  | 1.6 |  |  | 1.6 | 1.6
